Measured values: US20090123479A1 (published 2009)

T1: recombinant human IL-23 (human, UniProt Q9NPF7 20-189; P29460 23-328)
T1 construct: also called hIL-23
T1 sequence 1: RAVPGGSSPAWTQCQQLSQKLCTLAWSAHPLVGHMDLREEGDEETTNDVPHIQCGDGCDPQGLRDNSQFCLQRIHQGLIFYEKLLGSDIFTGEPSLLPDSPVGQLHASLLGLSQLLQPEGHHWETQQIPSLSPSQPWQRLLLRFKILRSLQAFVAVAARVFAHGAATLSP
T1 sequence 2: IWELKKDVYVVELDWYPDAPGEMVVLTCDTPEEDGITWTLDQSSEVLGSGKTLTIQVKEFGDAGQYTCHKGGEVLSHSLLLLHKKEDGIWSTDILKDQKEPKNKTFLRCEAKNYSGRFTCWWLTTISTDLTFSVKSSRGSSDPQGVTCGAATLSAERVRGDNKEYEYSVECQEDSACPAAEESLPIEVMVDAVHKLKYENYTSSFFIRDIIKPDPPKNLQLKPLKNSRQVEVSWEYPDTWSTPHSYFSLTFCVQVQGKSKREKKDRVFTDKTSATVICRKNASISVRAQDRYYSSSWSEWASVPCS

B1: chimeric 8C92H6 HC1LC1 (antibody, V domains shown)
VH: QVQLQQSGAELARPGTSVKLSCKASGYTFTSYGITWVKQRTGQGLEWIGENYPRSGNTYYNEKFKGKATLTADKSSSTAYMELRSLTSEDSAVYFCARCEFISTVVAPYYYALDYWGQGTSLVTVS
VL: DIVLTQSPASLAVSLGQKATISCKASKKVTIFGSISALHWYQQKPGQPPKLIYNGAKLESGVSARFSDSGSQNRSPFGNQLSFTLTIDPVEADDAATYYCLQNKEVPYTFGGGTKLEIKR
notes: Murine variable regions with human constant regions; also called 8C92H6.HC1LC1 Chimera; 8C9 chimera
B2: A3M0 (antibody, human IgG1, kappa, V domains shown)
VH: QVQLVQSGAEVKKPGSSVKVSCKASGYTFTSYGITWVRQAPGQGLEWMGENYPRSGNTYYNEKFKGRVTITADKSTSTAYMELSSLRSEDTAVYYCARSEFISTVVAPYYYALDYWGQGTLVTVSS
VL: DIVMTQSPDSLAVSLGERATINCKASKKVTIFGSISALHWYQQKPGQPPKLIYNGAKLESGVPDRFSGSGSGTDFTLTISSLQAEDVAVYYCLQNKEVPYTFGGGTKVEIKR
notes: Full length chains; also called humanized mAb A3M0

Legend:
[1] = molecular target: T1, recombinant human IL-23; assay: SPR (Biacore T100), purified antibody captured on anti-human IgG, IL-23 analyte (different source of IL-23), 1:1 model
Description: Biacore analysis was carried out using a capture surface on a CM5 chip. Anti-human IgG (BR-1008-39) was used as the capturing agent. Anti-human IgG was coupled to a CM5 biosensor chip by primary amine coupling. Humanized antibody was captured on this immobilised surface and defined concentrations of IL-23 were passed over this captured surface. An injection of buffer over the captured antibody surface was used for double-referencing. […] T100 Biacore machine was used to generate the data; all runs were carried out at 25° C. using HBS EP. Data was analysed using the software inherent to the machine and fitted to the 1:1 model of binding. Tables 7 and 8 detail the IL-23 binding analysis carried out on the 8C92H6.HC1LC1 chimera and selected humanized variants in two separate experiments. Data presented in Tables 7 and 8 are from purified antibody samples. The data shown for the humanized variants is representative of a number of runs. The chimeric mAb (8C9H6.HC1LC1) was only run once in each experiment, so data shown for this mAb is from that one run.

[2] = molecular target: T1, recombinant human IL-23; assay: sandwich ELISA (optimised protocol, OD450): plate coated with anti-human IL-12, antibody pre-incubated with constant human IL-23, bound antibody detected with anti-human IgG gamma chain HRP; purified antibody
Description: Optimised assay conditions: Plates were coated with anti human IL12 at 2 μg/diluent (phosphate buffered saline). 50 μl/well of this mixture was incubated overnight at 4° C. The plates were then washed three times with Phosphate Buffered Saline with 0.05% Tween 20 (PBST). Plates were blocked with 4% skim milk powder (Fluka BioChemika #70166) PBS 200 μl/well for a minimum of 1 hour at room temperature. The plates were then washed three times with Phosphate Buffered Saline+0.05% Tween 20 (PBST). Various concentrations of antibody were incubated in a separate plate with a constant concentration of IL-23 for 1 hour at room temperature. 50 ul of each mixture were transferred to the assay plate and incubated at RT for 1 hr. They were then washed three times with Phosphate Buffered Saline+0.05% Tween 20 (PBST). […] 50 μl/well of the detection antibody was added and incubated at RT for 1 hour. The plates were then washed three times with Phosphate Buffered Saline+0.05% Tween 20 (PBST). 50 μl/well of TMB was added to the plates and incubated at RT for 10 min. 50 μl/well of 1 MH₂SO₄ was added. The plate was read at OD450 nm using the SOftmaxPRO versamax plate reader.

[3] = molecular target: T1, recombinant human IL-23; assay: IL-23/IL-23R inhibition ELISA (optimised protocol, OD450): plate coated with human IL23R Fc chimera, antibody pre-incubated with constant human IL-23, bound IL-23 detected with biotinylated anti-human IL-12; purified antibody
Description: Optimised protocol: Plates were coated with human IL23R Fc chimera at […] (phosphate buffered saline). 50 μl/well of this mixture was incubated overnight at 4° C. The plates were then washed three times with Phosphate Buffered Saline with 0.05% Tween 20 (PBST). Plates were blocked with 4% skim milk powder (Fluka BioChemika #70166) PBST 100 μl/well for a minimum of 1 hour at room temperature. The plates were then washed three times with Phosphate Buffered Saline+0.05% Tween 20 (PBST). Various concentrations of antibody were incubated in a separate plate with a constant concentration of IL-23 for 1 hour at room temperature. 50 ul of each mixture were transferred to the assay plate and incubated at RT for 1 hr. They were then washed three times with Phosphate Buffered Saline+0.05% Tween 20 (PBST). Bound IL23 was detected by anti human 1L12 Biotin labelled Ab (R&D systems BAF219) diluted to 100 ng/ml in 4% skim milk powder (Fluka BioChemika #70166) PBST. 50 μl/well of the biotinylated antibody was added and incubated at RT for 1 hour. The plates were then washed three times with Phosphate Buffered Saline+0.05% Tween 20 (PBST). SA HRP (GE healthcare RPN4401) was diluted 1/4000 in 4% skim m ilk powder (Fluka BioChemika #70166) PBS, 50 μl/well was added to the plates. The plates were then washed three times with Phosphate Buffered Saline+0.05% Tween 20 (PBST). 50 ul/well of TMB was added to the plates and incubated at RT for 15 min. 25 μl/well of 3 MH₂SO₄ was added to the wells already containing TMB. The plate was read at OD450 nm using the SOftmaxPRO versamax plate reader.

Row | Binder | Kd [1] | koff [1] | kon [1] | EC50 (read off the curve) [2] | IC50 (read off the curve) [3]
1 | B1 | 0.364 nM | 0.000337 s⁻¹ | 925000 M⁻¹ s⁻¹ | ~0.1 nM | ~2 nM
2 | B2 | 0.19 nM | 0.00024 s⁻¹ | 1.27e+06 M⁻¹ s⁻¹ | ~0.03 nM | ~0.5 nM
